Results on 2 molecules are retold here after patent US20090186811A1 (published 2009).

No end group written: not given here. Where only a bound is given, the exact number is not on record here.

The target of assay [1] is T1, human Y5 receptor (human, UniProt Q15761 1-445).
T1 sequence (looked up): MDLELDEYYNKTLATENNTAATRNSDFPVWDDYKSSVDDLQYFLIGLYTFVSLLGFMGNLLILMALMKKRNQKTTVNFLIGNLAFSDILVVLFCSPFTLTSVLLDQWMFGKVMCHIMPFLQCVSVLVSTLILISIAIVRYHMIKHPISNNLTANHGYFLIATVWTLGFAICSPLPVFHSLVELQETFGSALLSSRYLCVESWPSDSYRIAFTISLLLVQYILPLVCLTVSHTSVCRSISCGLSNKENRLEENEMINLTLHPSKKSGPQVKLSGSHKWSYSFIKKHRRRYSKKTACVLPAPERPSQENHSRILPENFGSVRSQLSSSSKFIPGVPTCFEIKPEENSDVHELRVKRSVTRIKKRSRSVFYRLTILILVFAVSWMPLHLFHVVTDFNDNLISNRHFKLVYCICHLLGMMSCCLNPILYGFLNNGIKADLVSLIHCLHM
The assay is described as follows: cell-based or functional assay.

The target in assay [2] is T1, human Y5 receptor. The assay is described as follows: competition binding, 125I-NPY displaced, COS-7 cells with human Y5.
Method: (§1) Transfected COS-7 cells are transferred to culture plates one day after transfection at a density of 40×10^3 cells per well aiming at 5-8% binding of the radioactive ligand. […] Determinations are made in duplicate. Steady state binding is reached with the radioactive ligand under these conditions. EC50 values were calculated using a standard pharmacological data handling software, Prism 3.0 (graphPad Sofware, San Diego, USA).
The target of a further assay is T2, human Y2 receptor (human, UniProt P49146 1-381).
T2 sequence (looked up): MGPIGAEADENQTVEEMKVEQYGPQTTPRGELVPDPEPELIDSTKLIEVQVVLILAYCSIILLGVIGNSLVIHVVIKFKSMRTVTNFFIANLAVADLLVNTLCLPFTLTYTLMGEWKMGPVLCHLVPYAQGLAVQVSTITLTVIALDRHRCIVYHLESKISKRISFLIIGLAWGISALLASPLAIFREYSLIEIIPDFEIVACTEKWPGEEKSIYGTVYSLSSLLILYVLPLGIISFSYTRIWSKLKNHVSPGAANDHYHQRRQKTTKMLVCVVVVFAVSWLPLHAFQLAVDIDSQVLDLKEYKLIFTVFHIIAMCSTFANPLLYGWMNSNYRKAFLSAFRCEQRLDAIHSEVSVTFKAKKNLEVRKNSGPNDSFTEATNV
The assay is described as follows: cell-based or functional assay.

Assay [3] addresses T3, human Y4 receptor (human, UniProt P50391 1-375). The assay is described as follows: cell-based or functional assay.
Assay [4] addresses T3, human Y4 receptor. The assay is described as follows: competition binding, 125I-PP displaced, COS-7 cells with human Y4.
Method: as §1

T3 sequence (P50391 whole entry): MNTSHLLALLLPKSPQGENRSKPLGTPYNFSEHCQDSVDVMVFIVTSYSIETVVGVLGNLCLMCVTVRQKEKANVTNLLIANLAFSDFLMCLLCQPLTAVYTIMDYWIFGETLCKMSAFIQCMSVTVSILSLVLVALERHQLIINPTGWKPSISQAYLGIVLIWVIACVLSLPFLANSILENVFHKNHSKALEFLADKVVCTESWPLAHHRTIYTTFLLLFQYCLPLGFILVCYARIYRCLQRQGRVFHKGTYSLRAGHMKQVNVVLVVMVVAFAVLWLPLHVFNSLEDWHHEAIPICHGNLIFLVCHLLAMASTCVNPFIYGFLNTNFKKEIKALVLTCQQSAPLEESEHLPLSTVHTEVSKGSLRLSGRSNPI

Regarding KKKKKKRHYLNLVTRQRY-NH2 (also called [Lys]6-PYY25-36) [Lys-Lys-Lys-Lys-Lys-Lys-PYY25-36], in the assay with human Y5 receptor [1], the “EC50 (inositol phosphate turnover)” value is greater than 1000 nM. Moreover, the IC50 – broadly, the concentration that inhibits the measured activity by half – with human Y5 receptor [2] is 429 nM.
On to APLKPVYPGDNATPEQMAQYAADLRRYINMLTRQRY-NH2 [[Lys4,Gln34]PP], for which the “EC50 (inositol phosphate turnover)” value with human Y5 receptor [1] came to 3.8 nM; with human Y2 receptor it was 0.17 nM; with human Y4 receptor [3], 64 nM. Also, the IC50 with human Y4 receptor [4] was found to be 6 nM; in the assay with human Y5 receptor [2], 0.87 nM.
